Legend:
Experiment in all cases: holdup assay
Parameters in all cases: key: below the threshold = too weak to quantify, mostly under pKd 3.1 to 4
[1] = target: FRMPD4, Q14CM0
[2] = target: GRASP, Q7Z6J2
[3] = target: T1, APBA1_2, Q02410
T1 sequence (Q02410 742-832, limits assumed, looked up): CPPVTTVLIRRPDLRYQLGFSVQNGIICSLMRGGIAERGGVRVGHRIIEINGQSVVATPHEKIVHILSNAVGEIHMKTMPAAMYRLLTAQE

[4] = target: T2, DVL3, Q92997
T2 sequence (Q92997 244-331, limits assumed, looked up): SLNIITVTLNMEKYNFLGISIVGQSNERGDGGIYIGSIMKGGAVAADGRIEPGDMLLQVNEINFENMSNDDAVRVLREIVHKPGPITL

[5] = target: HTRA2, O43464
[6] = target: T3, NHERF3_4, Q5T2W1
T3 sequence (Q5T2W1 373-468, limits assumed, looked up): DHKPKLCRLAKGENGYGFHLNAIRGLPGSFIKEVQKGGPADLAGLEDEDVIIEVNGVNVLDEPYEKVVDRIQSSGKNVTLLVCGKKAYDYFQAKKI

[7] = target: Inadl_8, Q8NI35
[8] = target: IL16_4, Q14005
[9] = target: Inadl_9, Q8NI35
[10] = target: Inadl_10, Q8NI35
[11] = target: T4, MPP6, Q9NZW5
T4 sequence (Q9NZW5 125-219, limits assumed, looked up): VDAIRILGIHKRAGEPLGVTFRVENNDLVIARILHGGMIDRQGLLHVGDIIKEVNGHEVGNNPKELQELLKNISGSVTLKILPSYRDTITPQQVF

[12] = target: T5, NHERF3_3, Q5T2W1
T5 sequence (Q5T2W1 238-333, limits assumed, looked up): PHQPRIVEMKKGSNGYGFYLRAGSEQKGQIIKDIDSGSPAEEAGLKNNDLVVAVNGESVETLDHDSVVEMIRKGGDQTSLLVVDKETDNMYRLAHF

[13] = target: T6, HTRA4, P83105
T6 sequence (P83105 378-476, limits assumed, looked up): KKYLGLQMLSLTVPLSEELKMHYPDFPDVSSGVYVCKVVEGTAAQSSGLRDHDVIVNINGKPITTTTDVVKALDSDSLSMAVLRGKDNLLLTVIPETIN

[14] = target: DLG2_2, Q15700
[15] = target: NHERF2_2, Q15599
[16] = target: T7, DLG3_3, Q92796
T7 sequence (Q92796 374-475, limits assumed, looked up): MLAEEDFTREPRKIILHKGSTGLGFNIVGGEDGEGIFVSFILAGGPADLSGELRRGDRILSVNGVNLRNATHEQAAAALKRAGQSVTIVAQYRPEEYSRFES

[17] = target: LAP2, Q96RT1
[18] = target: T8, RHPN1, Q8TCX5
T8 sequence (Q8TCX5 508-602, limits assumed, looked up): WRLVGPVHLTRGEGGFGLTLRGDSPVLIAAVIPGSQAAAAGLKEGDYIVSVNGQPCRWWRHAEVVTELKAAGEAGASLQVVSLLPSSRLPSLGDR

[19] = target: T9, PDZD7_3, Q9H5P4
T9 sequence (Q9H5P4 857-944, limits assumed, looked up): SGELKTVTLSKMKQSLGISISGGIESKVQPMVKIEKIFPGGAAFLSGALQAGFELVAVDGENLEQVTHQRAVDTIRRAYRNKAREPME

[20] = target: T10, CARD11, Q9BXL7
T10 sequence (Q9BXL7 662-765, limits assumed, looked up): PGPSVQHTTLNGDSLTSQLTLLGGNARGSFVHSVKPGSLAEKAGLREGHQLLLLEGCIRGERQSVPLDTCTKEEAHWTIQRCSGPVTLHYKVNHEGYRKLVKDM

[21] = target: MAGI2_3, Q86UL8
[22] = target: MAGI2_2, Q86UL8
[23] = target: T11, FRMPD1, Q5SYB0
T11 sequence (Q5SYB0 52-145, limits assumed, looked up): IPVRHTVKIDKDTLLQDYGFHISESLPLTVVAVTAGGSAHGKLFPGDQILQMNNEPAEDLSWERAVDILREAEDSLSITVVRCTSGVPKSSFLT

[24] = target: T12, PDZD2_2, O15018
T12 sequence (O15018 329-429, limits assumed, looked up): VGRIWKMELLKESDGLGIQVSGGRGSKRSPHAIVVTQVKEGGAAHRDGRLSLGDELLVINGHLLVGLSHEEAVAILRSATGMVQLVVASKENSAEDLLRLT

[25] = target: PDZRN4_1, Q6ZMN7
[26] = target: NHERF4_2, Q86UT5
[27] = plain residues with an end cap or a label only (N-terminal biotin on a linker: ttds)
[28] = plain residues with an end cap or a label only (N-terminal biotin on a linker: ado-ado, ttds)

DLG2_2, Q15700, sequence (Q15700 189-283): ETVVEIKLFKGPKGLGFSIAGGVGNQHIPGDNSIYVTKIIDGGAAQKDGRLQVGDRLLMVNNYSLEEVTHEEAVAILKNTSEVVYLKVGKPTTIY
FRMPD4, Q14CM0, sequence (Q14CM0 67-160): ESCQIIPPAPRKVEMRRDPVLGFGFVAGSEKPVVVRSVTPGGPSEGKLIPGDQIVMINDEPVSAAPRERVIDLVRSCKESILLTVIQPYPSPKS
MAGI2_3, Q86UL8, sequence (Q86UL8 600-682): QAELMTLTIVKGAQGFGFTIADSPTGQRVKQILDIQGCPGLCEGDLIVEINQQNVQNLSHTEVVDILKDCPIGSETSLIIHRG
HTRA2, O43464, sequence (O43464 355-458): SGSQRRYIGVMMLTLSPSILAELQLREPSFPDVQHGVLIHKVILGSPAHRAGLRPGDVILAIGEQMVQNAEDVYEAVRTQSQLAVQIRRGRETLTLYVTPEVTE
PDZRN4_1, Q6ZMN7, sequence (Q6ZMN7 213-318): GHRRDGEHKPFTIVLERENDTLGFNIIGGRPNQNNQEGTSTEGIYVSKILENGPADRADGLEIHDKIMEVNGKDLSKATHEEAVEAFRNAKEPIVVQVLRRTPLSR
Inadl_9, Q8NI35, sequence (Q8NI35 1530-1615): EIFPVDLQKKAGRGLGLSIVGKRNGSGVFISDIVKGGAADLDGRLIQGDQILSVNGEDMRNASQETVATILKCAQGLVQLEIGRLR
NHERF4_2, Q86UT5, sequence (Q86UT5 220-308): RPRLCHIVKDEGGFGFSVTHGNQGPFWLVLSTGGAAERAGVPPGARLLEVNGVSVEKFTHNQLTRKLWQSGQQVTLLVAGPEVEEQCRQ
IL16_4, Q14005, sequence (Q14005 1229-1329): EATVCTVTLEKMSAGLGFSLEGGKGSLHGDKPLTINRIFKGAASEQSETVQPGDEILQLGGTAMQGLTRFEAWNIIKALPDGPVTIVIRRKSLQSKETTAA
GRASP, Q7Z6J2, sequence (Q7Z6J2 96-193): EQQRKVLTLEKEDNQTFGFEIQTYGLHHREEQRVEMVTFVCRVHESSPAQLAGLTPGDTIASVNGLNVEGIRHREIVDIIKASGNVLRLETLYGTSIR
LAP2, Q96RT1, sequence (Q96RT1 other isoform, or with tags, fused parts or gaps): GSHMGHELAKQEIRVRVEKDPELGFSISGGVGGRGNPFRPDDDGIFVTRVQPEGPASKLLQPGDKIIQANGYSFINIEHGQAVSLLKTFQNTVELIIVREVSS
Inadl_8, Q8NI35, sequence (Q8NI35 1425-1530): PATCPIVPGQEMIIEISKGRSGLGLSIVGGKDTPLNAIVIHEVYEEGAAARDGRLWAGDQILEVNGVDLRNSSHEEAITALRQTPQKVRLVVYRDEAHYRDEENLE
NHERF2_2, Q15599, sequence (Q15599 142-238): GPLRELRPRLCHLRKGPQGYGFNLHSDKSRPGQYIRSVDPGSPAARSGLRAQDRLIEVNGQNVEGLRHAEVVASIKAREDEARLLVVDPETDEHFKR
MAGI2_2, Q86UL8, sequence (Q86UL8 410-522): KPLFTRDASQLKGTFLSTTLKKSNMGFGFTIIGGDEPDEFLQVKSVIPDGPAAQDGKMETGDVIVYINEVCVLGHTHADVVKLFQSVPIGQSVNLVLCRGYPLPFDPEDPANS
Inadl_10, Q8NI35, sequence (Q8NI35 1673-1763): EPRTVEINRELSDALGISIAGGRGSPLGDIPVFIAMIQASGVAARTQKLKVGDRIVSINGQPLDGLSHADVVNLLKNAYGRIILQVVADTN

SSIDLWETAL [SLC15A5, A6NIM6] gave a pKd [1, 27] of 5.35, a pKd [2, 27] of 5.28 and a pKd [3, 27] of 4.29. For the same binder, the pKd [4, 27] was “below the threshold”, the pKd [5, 27] was “below the threshold” and the pKd [6, 27] was 4.94. The pKd [7, 27] was “below the threshold”, the pKd [8, 27] was “below the threshold” and the pKd [9, 27] was 3.7. For the same binder, the pKd [10, 27] was 4.17, the pKd [11, 27] was “below the threshold” and the pKd [12, 27] was “below the threshold”. For the same binder, the pKd [13, 27] was “below the threshold”, the pKd [14, 27] was 3.88 and the pKd [15, 27] was 5.41. It also gave a pKd [16, 27] of 3.8, a pKd [17, 27] of 4.9 and a pKd [18, 27] of 5. The pKd [19, 27] was 5.56, the pKd [20, 27] was “below the threshold” and the pKd [21, 27] was “below the threshold”. The pKd [22, 27] was 4.33, the pKd [23, 27] was “below the threshold” and the pKd [24, 27] was 4.11. For the same binder, the pKd [25, 27] was 5.58 and the pKd [26, 27] was “below the threshold”.

In the case of SNAKAVETDV [KCNA4, P22459], the pKd [1, 28] is reported as “below the threshold”, the pKd [2, 28] is reported as “below the threshold” and the pKd [3, 28] is reported as 3.5. For the same binder, the pKd [4, 28] was “below the threshold”, the pKd [5, 28] was “below the threshold” and the pKd [6, 28] was “below the threshold”. For the same binder, the pKd [7, 28] was “below the threshold”, the pKd [8, 28] was “below the threshold” and the pKd [9, 28] was “below the threshold”. For the same binder, the pKd [10, 28] was “below the threshold”, the pKd [11, 28] was “below the threshold” and the pKd [12, 28] was “below the threshold”. For the same binder, the pKd [13, 28] was “below the threshold”, the pKd [14, 28] was 5 and the pKd [15, 28] was 3.59. The pKd [16, 28] was “below the threshold”, the pKd [17, 28] was 4.32 and the pKd [18, 28] was 4.15. The pKd [19, 28] was “below the threshold”, the pKd [20, 28] was 3.55 and the pKd [21, 28] was 3.54. For the same binder, the pKd [22, 28] was “below the threshold”, the pKd [23, 28] was “below the threshold” and the pKd [24, 28] was 4.32. The pKd [25, 28] was “below the threshold” and the pKd [26, 28] was “below the threshold”.
